Data taken from paper PMC7327923.

Legend:
[1] = target: Dps protein from Thermoleptolyngbya sp. O-77 (TlDps1) (Thermoleptolyngbya sp. O-77); test: SEC-RALS; TlDps1 as isolated, 206 µg/mL; Superdex 200 Increase, 303 K, 10 mM Tris/HCl pH 8.0, 0.5 mL/min
[2] = target: Dps protein from Thermoleptolyngbya sp. O-77 (TlDps1) (Thermoleptolyngbya sp. O-77); test: SDS/PAGE; 5-20% gel; sample buffer with 2% SDS and 14.4 mM 2-mercaptoethanol; incubated 10 min at 298, 323 or 348 K before loading
[3] = target: Dps protein from Thermoleptolyngbya sp. O-77 (TlDps1) (Thermoleptolyngbya sp. O-77); test: crystal structure; hanging drop, 293 K, TlDps1 4.0 mg/mL in 10 mM Tris/HCl pH 8.0 with 0.15 M cesium chloride and 18% PEG 3350; 2.9 Å; six subunits in the asymmetric unit
[4] = target: Dps protein from Thermoleptolyngbya sp. O-77 (TlDps1) (Thermoleptolyngbya sp. O-77); test: native gel or EMSA; native PAGE, 5-20% gel; TlDps1 in 10 mM Tris/HCl pH 8.0, also after DNase I treatment

Measured: stoichiometry N

Dps protein from Thermoleptolyngbya sp. O-77 (TlDps1) (natural protein)
12: all assays above
